One molecule from patent publication US6989256 (UNIVERSITY OF MEDICINE AND DENTISTRY OF NEW JERSEY, dated 2006) can be followed below.

The assay has as its target T1, FLAG epitope-tagged Mtt1p (yeast (S. cerevisiae), UniProt P32644 1-1121, limits assumed).
T1 construct: Used as a yeast cytoplasmic extract, not as purified protein; also called Flag-Mtt1p; Modulator of Translation Termination
T1 sequence (looked up): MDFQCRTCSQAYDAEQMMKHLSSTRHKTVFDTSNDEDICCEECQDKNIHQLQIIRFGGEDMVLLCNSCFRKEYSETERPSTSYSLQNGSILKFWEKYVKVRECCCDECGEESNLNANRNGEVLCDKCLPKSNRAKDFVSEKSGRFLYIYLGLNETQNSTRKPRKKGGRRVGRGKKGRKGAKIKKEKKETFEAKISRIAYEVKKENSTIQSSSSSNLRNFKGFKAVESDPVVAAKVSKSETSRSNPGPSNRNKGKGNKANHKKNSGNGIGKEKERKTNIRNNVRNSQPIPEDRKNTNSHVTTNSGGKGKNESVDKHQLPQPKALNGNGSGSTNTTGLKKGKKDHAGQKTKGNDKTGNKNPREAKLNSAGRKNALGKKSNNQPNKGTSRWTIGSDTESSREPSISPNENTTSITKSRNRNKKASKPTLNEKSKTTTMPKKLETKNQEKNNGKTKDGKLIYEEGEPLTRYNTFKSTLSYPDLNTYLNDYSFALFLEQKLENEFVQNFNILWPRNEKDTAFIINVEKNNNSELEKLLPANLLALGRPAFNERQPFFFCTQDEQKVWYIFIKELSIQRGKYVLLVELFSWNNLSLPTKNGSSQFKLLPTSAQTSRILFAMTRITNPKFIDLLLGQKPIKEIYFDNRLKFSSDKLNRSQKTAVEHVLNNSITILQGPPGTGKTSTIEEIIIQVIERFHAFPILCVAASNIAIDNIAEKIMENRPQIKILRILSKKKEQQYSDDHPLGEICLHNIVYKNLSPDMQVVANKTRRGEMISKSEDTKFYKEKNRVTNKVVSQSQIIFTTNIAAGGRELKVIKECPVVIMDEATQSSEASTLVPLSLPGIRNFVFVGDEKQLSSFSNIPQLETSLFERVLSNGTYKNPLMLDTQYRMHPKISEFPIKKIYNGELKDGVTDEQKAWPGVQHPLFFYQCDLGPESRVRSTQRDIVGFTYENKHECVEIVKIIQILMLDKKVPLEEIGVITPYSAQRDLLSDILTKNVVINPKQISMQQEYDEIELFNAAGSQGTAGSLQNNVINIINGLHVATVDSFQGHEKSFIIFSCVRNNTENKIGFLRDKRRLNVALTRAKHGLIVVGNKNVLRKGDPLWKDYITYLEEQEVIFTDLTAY
Description: GST pull-down from yeast cytoplasmic extract, anti-FLAG immunoblot. On the procedure:
Total RNA was prepared and subjected to RNA blotting analysis, using a probe for CYH2 mRNA. Figure 4: FIG. 4 Mtt1 interacts withe eRF3. Cytoplasmic extracts from a yeast strain BJ3505 transformed with either pG-1 (vector) or pG-1 FLAGMTT1 (Flag-Mtt1p) were prepared in IBTB and incubated with 30 μl GST, GST-eRF1. GST-eRF3, GST-eRF3NM or GST-eRF3C sepharose-protein complexes. The sepharose-protein complexes were washed 2 times in IBTB (see materials and methods), resuspended in SDS-PAGE loading buffer, separated on an 8% SDS-PAGE gel and immunoblotted using anti-FLAG antibody.
Since deleting the MTT1 gene also promotes nonsense suppression of the tyr7-1 and leu2-2 alleles, Mtt1p also interacts with the peptidyl release factors. To test this, eRF1 and eRF3 were individually expressed in *E. coli* as glutathione-S-transferase (GST) fusion proteins and purified using glutathione sepharose beads. The purified GST-RF (release factor) fusion proteins associated with the glutathione sepharose beads were added to a yeast cytoplasmic extract containing a FLAG epitope-tagged Mtt1p (see Experimental Procedures). Following incubation, the GST-RFs and associated proteins were purified by affinity chromatography and subjected to SDS-PAGE. Immunoblotting was performed and the presence of the Flag-Mtt1p was assayed using an antibody against the FLAG epitope.
A general note: A western blot detects proteins with antibodies after separation by electrophoresis.

B1: GST-eRF1 (other, yeast (S. cerevisiae), UniProt P12385 1-437, looked up)
chain: MDNEVEKNIEIWKVKKLVQSLEKARGNGTSMISLVIPPKGQIPLYQKMLTDEYGTASNIKSRVNRLSVLSAITSTQQKLKLYNTLPKNGLVLYCGDIITEDGKEKKVTFDIEPYKPINTSLYLCDNKFHTEVLSELLQADDKFGFIVMDGQGTLFGSVSGNTRTVLHKFTVDLPKKHGRGGQSALRFARLREEKRHNYVRKVAEVAVQNFITNDKVNVKGLILAGSADFKTDLAKSELFDPRLACKVISIVDVSYGGENGFNQAIELSAEALANVKYVQEKKLLEAYFDEISQDTGKFCYGIDDTLKALDLGAVEKLIVFENLETIRYTFKDAEDNEVIKFAEPEAKDKSFAIDKATGQEMDVVSEEPLIEWLAANYKNFGATLEFITDKSSEGAQFVTGFGGIGAMLRYKVNFEQLVDESEDEYYDEDEGSDYDFI
notes: also called GST-RF1; GST-RF; not shown: glutathione-S-transferase (GST) from vector pGEX2T
In the case of B1, the binding result is recorded as “no binding”.
